# Data published in patent publication US20240101645A1 (HENRY M JACKSON FOUNDATION FOR THE ADVANCEMENT OF MILITARY …, published 2024).
# T1: HCoV-HKU1 spike antigens (bead panel) (HCoV-HKU1, UniProt Q5MQD0 13-1300)
# T1 sequence: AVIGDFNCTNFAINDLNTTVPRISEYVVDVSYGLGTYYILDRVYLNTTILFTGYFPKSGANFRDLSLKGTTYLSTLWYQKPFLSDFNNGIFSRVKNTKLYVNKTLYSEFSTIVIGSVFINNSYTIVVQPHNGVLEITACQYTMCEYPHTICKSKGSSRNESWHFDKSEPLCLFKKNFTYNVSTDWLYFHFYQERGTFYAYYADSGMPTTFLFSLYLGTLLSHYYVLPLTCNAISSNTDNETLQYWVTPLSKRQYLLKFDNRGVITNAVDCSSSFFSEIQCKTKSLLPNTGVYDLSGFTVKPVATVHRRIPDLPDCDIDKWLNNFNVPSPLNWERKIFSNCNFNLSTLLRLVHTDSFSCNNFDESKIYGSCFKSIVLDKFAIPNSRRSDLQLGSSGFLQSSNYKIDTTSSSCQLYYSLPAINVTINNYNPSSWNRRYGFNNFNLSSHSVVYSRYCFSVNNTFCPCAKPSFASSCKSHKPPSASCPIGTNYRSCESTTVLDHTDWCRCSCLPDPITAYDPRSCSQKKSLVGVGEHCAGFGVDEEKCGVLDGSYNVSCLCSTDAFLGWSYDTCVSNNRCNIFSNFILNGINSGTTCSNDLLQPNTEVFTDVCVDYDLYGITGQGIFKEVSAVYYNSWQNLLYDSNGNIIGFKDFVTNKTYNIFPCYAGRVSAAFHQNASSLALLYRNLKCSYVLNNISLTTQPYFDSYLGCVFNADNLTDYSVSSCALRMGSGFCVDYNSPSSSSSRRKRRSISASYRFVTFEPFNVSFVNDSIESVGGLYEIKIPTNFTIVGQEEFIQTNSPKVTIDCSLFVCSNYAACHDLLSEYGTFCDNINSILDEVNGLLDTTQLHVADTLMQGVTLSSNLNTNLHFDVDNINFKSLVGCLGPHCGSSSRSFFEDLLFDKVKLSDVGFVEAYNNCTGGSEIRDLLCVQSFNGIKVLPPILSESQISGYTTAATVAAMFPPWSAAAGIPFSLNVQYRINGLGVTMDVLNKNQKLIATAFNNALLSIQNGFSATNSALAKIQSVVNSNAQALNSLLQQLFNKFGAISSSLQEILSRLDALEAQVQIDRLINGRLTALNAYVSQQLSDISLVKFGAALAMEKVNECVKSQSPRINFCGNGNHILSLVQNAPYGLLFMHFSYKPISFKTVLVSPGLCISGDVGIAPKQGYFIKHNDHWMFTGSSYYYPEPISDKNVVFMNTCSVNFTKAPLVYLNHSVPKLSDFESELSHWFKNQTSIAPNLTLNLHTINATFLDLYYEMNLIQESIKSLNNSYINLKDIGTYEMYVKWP
# T2: HCoV-NL63 spike antigens (bead panel) (HCoV-NL63, UniProt Q6Q1S2 19-1296)
# T2 sequence: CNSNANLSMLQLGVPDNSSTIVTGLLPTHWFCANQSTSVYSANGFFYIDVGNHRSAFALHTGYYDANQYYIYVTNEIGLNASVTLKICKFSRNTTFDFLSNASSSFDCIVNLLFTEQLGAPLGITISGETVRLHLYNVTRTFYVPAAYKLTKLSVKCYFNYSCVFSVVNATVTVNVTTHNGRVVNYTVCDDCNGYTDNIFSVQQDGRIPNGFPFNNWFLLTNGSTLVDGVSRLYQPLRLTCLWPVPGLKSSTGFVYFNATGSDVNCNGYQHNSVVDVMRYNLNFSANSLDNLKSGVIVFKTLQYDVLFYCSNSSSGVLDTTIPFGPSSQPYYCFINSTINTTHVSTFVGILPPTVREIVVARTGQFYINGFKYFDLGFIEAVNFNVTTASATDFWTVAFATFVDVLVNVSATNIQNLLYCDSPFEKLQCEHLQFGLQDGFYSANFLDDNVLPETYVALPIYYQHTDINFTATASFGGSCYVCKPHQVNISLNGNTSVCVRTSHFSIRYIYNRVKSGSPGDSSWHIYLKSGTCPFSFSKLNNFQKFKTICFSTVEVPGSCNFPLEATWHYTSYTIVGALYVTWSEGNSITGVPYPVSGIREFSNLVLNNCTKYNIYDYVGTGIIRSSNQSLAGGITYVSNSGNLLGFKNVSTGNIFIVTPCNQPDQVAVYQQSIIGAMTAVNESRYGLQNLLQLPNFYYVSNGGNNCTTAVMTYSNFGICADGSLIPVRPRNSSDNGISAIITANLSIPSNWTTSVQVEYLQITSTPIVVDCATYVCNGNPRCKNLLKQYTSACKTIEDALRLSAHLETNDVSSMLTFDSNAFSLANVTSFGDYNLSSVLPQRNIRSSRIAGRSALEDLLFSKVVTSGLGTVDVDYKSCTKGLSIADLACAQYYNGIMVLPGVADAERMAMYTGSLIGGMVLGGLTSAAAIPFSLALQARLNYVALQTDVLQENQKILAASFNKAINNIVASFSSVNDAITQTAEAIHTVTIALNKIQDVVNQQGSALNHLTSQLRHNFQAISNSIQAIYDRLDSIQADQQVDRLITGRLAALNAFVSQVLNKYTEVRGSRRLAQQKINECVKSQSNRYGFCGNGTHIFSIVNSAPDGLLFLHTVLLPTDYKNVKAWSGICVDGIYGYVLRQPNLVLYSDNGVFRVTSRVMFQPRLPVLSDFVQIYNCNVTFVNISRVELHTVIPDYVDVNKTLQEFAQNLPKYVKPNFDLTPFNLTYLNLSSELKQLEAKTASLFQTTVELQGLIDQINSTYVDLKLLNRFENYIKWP
# How the values were obtained:
# [1] = target: T1, HCoV-HKU1 spike antigens (bead panel); assay: multiplex bead assay
# [2] = target: T2, HCoV-NL63 spike antigens (bead panel); assay: multiplex bead assay
Binder,binding result [1],binding result [2]
"COV_2137 (antibody, V domains shown, human IgG1) VH: EVQLVESGGGLVKPGGSLRLSCAASGFTFSSYTMNWVRQAPGKGLEWVSSISSGSSFIYYADSLRGRFTISRDNAKNSLYLQMNSLRAEDTAVYYCARAPEPQSVIYAYWYFDLWGRGTLVTVSS VL: QSALTQPASVSGSPGQSITFSCTGTSSDVGSYNLVSWYQQYPGKAPKLMIYEVNKRPSGVSNRFSGSKSGNTASLTISGLQAEDEADYYCCSYAGSSTFYVFGTGTKVTVLG",no binding,no binding
"COV_3053 (antibody, V domains shown, human IgG1) VH: EVQLVESGGGLVQPGRSLRLSCTASGFTLGDYAMTWVRQAPGKGLEWLGIIRNKRYGETKQYAASVKGRFTFSRDDSKGIGYLQRLSLKIEDTGVYYCTREHIVRDDAFDVWGQGTTVTVSS VL: DIVMTQSPDSLAVSLGERATINCKSSQSVLYSSNNKNYIAWYQQRPGQPPKLLIYWTSTRASGVPDRFSGSGSGTDFALTISSLQAEDVAVYYCQQYYTIPRTFGQGTKVEIK",no binding,no binding
"COV_1025 (antibody, V domains shown, human IgG1) VH: QVQLVESGGGVVQPGRSLRLSCAASGFTFNTYAMHWVRQAPGKGLEWVAIISYDGGNKYYADSMKGRFTISRDNSKNTLYLQMNSLRAEDTAVYYCARARTGNYYYGMDVWGQGTTVTVSS VL: not shown",no binding,no binding
"COV_1118 (antibody, V domains shown, human IgG1) VH: EVQLVESGGGLVKPGGSLRLSCAASGFSFSNYNMNWVRQAPGKGLEWVSYISSSSSYIYYADSVKGRFTISRDNAKNSLYLQMNSLRGEDTAVYSCAREASGAYYFDRSGYFDYWGQGTLVTVSP VL: not shown",no binding,no binding
"COV_1136 (antibody, V domains shown, human IgG1) VH: EVQLVESGGGLVKPGGSLRLSCAASGFTFSDCNMNWVRQAPGKGLEWVSSISSRSSYIYYADSVKGRFTISRDNAKNSLYLQMNSLRAEDTAVYSCAREASGAYYFDRSGYFDYWGQGTLVTVSP VL: DIQMTQSPSTLSASVGDRVTITCRASQSISSWLAWYQQKPGKAPNLLIYKASSLESGVPSRFSGSGSGTEFTLTISSLQPDDFATYYCQQYNTYPWTFGQGTKVEIKR",no binding,no binding
"COV_1154 (antibody, V domains shown, human IgG1) VH: EVQLVESGGGLVKPGGSLRLSCAASGFRFSDYNMNWVRQAPGKGLEWVSYISSSSSYIYYADSVKGRFTISRDNAKNSLYLQMNSLRGEDTAVYSCAREASGAYYFDRSGYFDYWGQGTLVTVSP VL: DIQMTQSPSTLSASVGDRVTITCRASQSISSWLAWYQQKPGKAPNLLIYKASSLESGVPSRFSGSGSGTEFTLTISSLQPYDFATYYCQQYNSYPWAFGQGTKVEMKR",no binding,no binding
"COV_1145 (antibody, V domains shown, human IgG1) VH: QVQLVESGGGVVQPGRSLRLSCAASGFTFSSYGMHWVRQAPGKGLEWVAVIWYDGSNKYYADSVKGRFTISRDNSKNTLYLQMNSLRVEDTAVYYCAREGQLGATGLDCWGQGTLVSVSS VL: SYELTQPPSVSVSPGQTARITCSGDALPKKYAYWYQQKSGQAPVLVIYEDSKRPSGIPERFSGSSSGTMATLTISGAQVEDEADYYCYSTDNSGNHWVFGGGTKLTVLG",no binding,no binding
"COV_1177 (antibody, V domains shown, human IgG1) VH: QVQLVESGGGVVQPGRSLRLSCAASGFTFSSYGMHWVRQAPGKGLEWVAVIWYDGSNKYYADSVKGRFTISRDNSKNTLYLQMNSLRAEDTAVYYCARDPLGAVAGYFDYWGQGTLVTVSS VL: SYVLTQPPSVSVAPGQTARITCGGNNIGSKSVHWYQQKPGQAPVLVVYDDSDRPSGIPERFSGSNSGNTATLTISRVEAGDEADYYCQVWDSSSDHHWVFGGGTKLTVLG",no binding,no binding
